Test results as given in FireProtDB (doi:10.1021/tx3002115).

B1: DNA polymerase IV, Q97W02 (parent)
chain: MIVLFVDFDYFYAQVEEVLNPSLKGKPVVVCVFSGRFEDSGAVATANYEARKFGVKAGIPIVEAKKILPNAVYLPMRKEVYQQVSSRIMNLLREYSEKIEIASIDEAYLDISDKVRDYREAYNLGLEIKNKILEKEKITVTVGISKNKVFAKIAADMAKPNGIKVIDDEEVKRLIRELDIADVPGIGNITAEKLKKLGINKLVDTLSIEFDKLKGMIGEAKAKYLISLARDEYNEPIRTRVRKSIGRIVTMKRNSRNLEEIKPYLFRAIEESYYKLDKRIPKAIHVVAVTEDLDIVSRGRTFPHGISKETAYSESVKLLQKILEEDERKIRRIGVRFSKFIEAIGLDKFFDT

Variants of: B1
Settings: Saccharolobus solfataricus (strain ATCC 35092 / DSM 1617 / JCM 11322 / P2); pH 7.5; Thermal; CD; Na3PO4; NaCl MgCl2 50000 5000; structure 2RDI; whole UniProt chain shown

Row | Variant | Tm [°C] | unfolding enthalpy (calorimetric) [kcal/mol]
1 | E100A E235A R240A | 88.3 | 193
2 | R240A | 96.5 | 93
3 | E235A R240A | 90.3 | 125
4 | E100A K148A | 89.4 | 135
5 | E100A K148A E235A R240A | 90 | 163
6 | K148A E235A R240A | 90.3 | 172
